Experimental data taken from US20030229906A1, “Methods and compositions for the treatment of disorders of HIV infection” (priority 2002, published 2003).

Legend:
[1] = molecular target: Src tyrosine kinase (mouse) (UniProt P05480); assay: cell-based or functional assay
HIVAN in transgenic mice = conditions: by inhibiting cellular Cdk9, an enzyme required for HIV-1 Tat to induce LTR-mediated virus transcription; cited from earlier work

Molecule | specific activity of the Src tyrosine kinase (immune-complex kinase assay with [gamma-32P]-ATP and enolase, podocytes transduced with Nef or vector) [1] | effect on HIVAN in transgenic mice (HIVAN in transgenic mice)
HIV-1 Nef | 2.3 fold | 
CN1CC[C@H](c2c(O)cc(O)c3c(=O)cc(-c4ccccc4Cl)oc23)[C@H](O)C1 [flavopiridol] |  | ameliorates HIVAN
